The test deals with T1, C1q (full-length; ligand binding and scaffolding part of the C1 complex) (human (endogenous in human serum), UniProt P02745 23-245; P02746 28-253; P02747 29-245).
T1 construct: complement C1q subunit A, human; complement C1q subunit B, human; complement C1q subunit C, human; In serum and in the bought C1 protein C1q stands in the C1 complex with the proteases C1r and C1s (C1r2s2); in the ELISAs it was detected with anti-C1q; also called gC1q (globular head domain of full-length C1q); source: endogenous, normal human serum (Complement Technology); purified C1 protein …
T1 sequence (P02745 23-245, chain 1 of 3): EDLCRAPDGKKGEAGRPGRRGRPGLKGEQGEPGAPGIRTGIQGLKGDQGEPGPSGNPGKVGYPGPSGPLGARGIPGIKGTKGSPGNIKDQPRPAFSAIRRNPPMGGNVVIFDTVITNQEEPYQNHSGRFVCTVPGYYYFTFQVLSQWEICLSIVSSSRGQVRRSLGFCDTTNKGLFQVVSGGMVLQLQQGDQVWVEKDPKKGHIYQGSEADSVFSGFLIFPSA
T1 sequence (P02746 28-253, chain 2 of 3): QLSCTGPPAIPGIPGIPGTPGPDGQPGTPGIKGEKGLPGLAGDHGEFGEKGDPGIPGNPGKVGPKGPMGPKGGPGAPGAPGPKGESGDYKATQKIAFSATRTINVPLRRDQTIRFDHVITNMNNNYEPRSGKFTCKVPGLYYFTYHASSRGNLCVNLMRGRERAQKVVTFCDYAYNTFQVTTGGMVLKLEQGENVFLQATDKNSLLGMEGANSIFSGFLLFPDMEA
T1 sequence (P02747 29-245, chain 3 of 3): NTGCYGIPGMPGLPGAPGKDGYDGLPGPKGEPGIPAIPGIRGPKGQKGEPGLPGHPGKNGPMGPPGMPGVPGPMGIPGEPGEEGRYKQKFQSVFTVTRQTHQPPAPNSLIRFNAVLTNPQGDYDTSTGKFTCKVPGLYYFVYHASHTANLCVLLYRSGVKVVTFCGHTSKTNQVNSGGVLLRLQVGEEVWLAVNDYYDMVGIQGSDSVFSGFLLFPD
In words: ELISA; titration of purified cL3-Bt bound to streptavidin-coated plates, 1% normal human serum in RPMI, 37 °C 1 hour, C1q detected with rabbit anti-C1q. Conditions: one partner purified.

Positions of bridges follow the written chain, without caps; N, C: chain ends.

Regarding {CH2CO}-YTVTFYPDPFTLQFIACGS-{K(biotin)} (thioether N-17) [cyclic-L3, biotinylated (cL3-Bt)], the EC50 is about 6 µM.
